Assay results as given in article PMC12618784, “The ARVC-5-associated protein TMEM43 controls mitochondrial energy metabolism by stabilising ER-mitochondrial contact sites” (Cellular and Molecular Life Sciences: CMLS, 2025).

Molecular target: T1, Dmel\Tmem43wt::TurboID (Drosophila, UniProt Q9VSB9 1-376)
T1 construct: Dmel\Tmem43 (CG8111), the Drosophila homologue of human TMEM43, wild type; Generated in this study; cloning details are available upon request; also called UAS-CG8111^WT-TurboID; source: transgenic Drosophila third-instar larvae, expressed in muscle with mef2-Gal4, in vivo and in lysate
T1 sequence (looked up): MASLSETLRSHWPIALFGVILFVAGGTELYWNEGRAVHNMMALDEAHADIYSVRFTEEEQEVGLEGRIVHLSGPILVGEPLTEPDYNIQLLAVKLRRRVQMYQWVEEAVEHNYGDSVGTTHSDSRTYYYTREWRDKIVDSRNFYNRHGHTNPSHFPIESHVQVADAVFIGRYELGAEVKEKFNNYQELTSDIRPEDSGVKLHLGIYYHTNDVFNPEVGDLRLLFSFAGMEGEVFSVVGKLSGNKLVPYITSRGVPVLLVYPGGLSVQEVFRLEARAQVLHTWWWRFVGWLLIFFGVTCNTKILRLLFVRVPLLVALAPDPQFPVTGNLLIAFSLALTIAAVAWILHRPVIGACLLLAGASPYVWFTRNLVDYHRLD
Assay: proximity labelling; TurboID fusions expressed in muscle of third-instar larvae (mef2-Gal4); biotinylated proteins purified on streptavidin microbeads and identified by mass spectrometry
Details: partners not purified

fold stronger interaction than the p.S333L mutant (relative amounts of biotinylated protein): ~8 fold
B1: Porin (natural protein, UniProt Q94920 1-282, looked up)
chain: MAPPSYSDLGKQARDIFSKGYNFGLWKLDLKTKTSSGIEFNTAGHSNQESGKVFGSLETKYKVKDYGLTLTEKWNTDNTLFTEVAVQDQLLEGLKLSLEGNFAPQSGNKNGKFKVAYGHENVKADSDVNIDLKGPLINASAVLGYQGWLAGYQTAFDTQQSKLTTNNFALGYTTKDFVLHTAVNDGQEFSGSIFQRTSDKLDVGVQLSWASGTSNTKFAIGAKYQLDDDASVRAKVNNASQVGLGYQQKLRDGVTLTLSTLVDGKNFNAGGHKIGVGLELEA
notes: Porin, the fly homologue of the vertebrate voltage-dependent anion channels (VDACs), outer mitochondrial membrane; also called Porin/VDAC; fly homologue of the vertebrate voltage-dependent anion channels; source: endogenous, Drosophila third-instar larval extract
